Reference: the domain aggregation screens of Martell et al. (2025)

Experiment: soluble fraction after stress (log2 fold change); higher = more stays soluble; pooled small domains, quantitative proteomics
Details: stress: 50 degC
How it was run: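 Custom libraries of small protein domains were pooled and measured in a high-throughput format, with quantitative proteomics as the read-out. Each library was stressed at 50°C. The value is the log2 fold change in the amount of each protein that stays soluble after stress, used as a measure of aggregation propensity; higher values mean more of the protein stays soluble.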

Sequence | soluble fraction (log2)
HMKNIINLVIDGELHGKRIDAVIAQKNDSLSRTRIKNLVINGNLSINDEIVSDPSKKIYKDDKVSLTIPLP | -0.058
HMPQGFEDLTEREREVLTLIAEGRTNQEIADALVISIKTVNRHRENIMAKLNLHSRVELVRYAIAQGLI | -0.474
HMFWRKIDFYGLNLSTYRNIINIGSDYNYIYLDLGNIYKILNPITGKIIEEQDLVMNIDNINWSS | -0.0971
HMAGTWQDQGNGQWKYQNDDGSYATGWIEDSGKSYYLDANGIMLANTTTPDGKQVGPDGALIP | -0.141
HMEETLRALAKKISEKVLKSGRSTTLEPMNPYERRIIHSAVSEIEGVSSKSVGEEPYRKVVISSDNP | 0.0364
HMKMVEIDYGKFLTMLDTGKVKSVEIENNRIAINPSSSKDKNIYITGRMDDPELVDRLKNAKVEFTKVIP | 0.261
HMKITAPLPGTITEIKVKVGDTVKNGDTVVVLEAMKMQNNIEAESNGTVTAIFVNKGDTVMEGDALMTI | 0.14
HMSKQDRRIRRTRRLLKESLIQLMQEKEFMNISVREVTERADLNRGTFYLHYQDTRHLLQDIENETL | -3.25
HMLEPEVLDLIGQVKSVHHFSVTQSHQLEKLVRHAHTLGFEIAELKSLLASSPNAKSLLSSLDQKLEPLRM | -0.909
HMSEMLPFDEARRQFERDYLVQLLKLTSGNVSQAARLARRNRTDFYALLGRHQLEPASFKPE | -0.298
HMSNYLKSVEVFDPITNKWSYVSAMKVRRGYVAVVATMDRLYAIGGYDGENYLSTVEMYNPDTN | 0.0631
HMIPDAIDPDGRFKWRAGEAVVGFGRHAGEPLKKIAIENPEFLRWILKADFSTDVKKIASDALKGYFPEK | -0.23
HMREISSDELHSLFSADQRGDLVINETTRLSIEKLYALHTPEEREAKVNELSGVLPSEAHRQLVHFLDYFD | -1.26
HMGNYRVIKWGMQGDDVKLMQQMLINRGYVLSATGKYASRTLKAIMAFQEANGLKADGIVGKRTWNKLL | -2.66
HMDPTIAAIRKKLKNWTIVEVHMTREELEQAVIDGKVDVFLSSAGFYRRLVRFGARDLATAMSPAYPD | -0.542
HMIEIKNLSFSYGKKKQSVFNDFSLTLDKGSVYGLLGKNGTGKSTLLYLMTGLLRPQAGQVLYKGVDVS | 0.0827
HMQTSETVYTTDKVNVRAGADTSSDKLGSVEKGTSLTRTGTDGDWSIIDYNGTTGYIKSEYLSATAPE | 0.133
HMSMPDERMLTSWMMARVKAAGKTMTRDAWNEFFERSNDSMDHMDMEMEKLLSYVYDKDGITLEDVEA | -0.394
HMVKDLEIETIRLNNLLASDAEEVLKSLGGAKPTYKAVAVPGSNSLVIEGTKADLIKLKSIINALEDGS | 0.0941
HMRKEDYLPIGSVINMDDRKFRVDSVDFDKDKVSLQDMALADARMPIFWEEPLTVVRELYEQQDE | 0.0652
HMGISEKVINIIETYTMIARKKYPSVKSLAEHFNVSERTVHRYLEIIKMIDVVDYDREKKGYFFPYGDR | -1.11
HMDMDRRALLLALINDRYHASVAEFARAINKAPAQVHQWLSGNRALGNAGARDIEIRLNLAQGYFDH | -1.91
HMLTAPMPGTIQQILVTKGQKVRSGQTLMILEAMKMEHKIKAPNSGEIISINYSLGNRVEMGANLIEI | -1.13

Sequence | soluble fraction (log2)
HMQDTYLYPVQHNGKVRLQVELPAKGLPEDLVRLALAHPKVVEWLNGRIPTKTIAVPGRIINMVLPNQ | -0.134
HMQMGLNEAYRVLHVSPDAPWREVQSAYKERMAKSHPDKVSHLGEELQEKAKELTVEINKAYNTIKRYKK | 0.194
HMKPKDILLPNFTNLTLDEAKAKAEEVKLNLNVSEEKYDVQIEEGKIISQDPKYQPNYTVKEGSTVNVVVS | 0.161
HMGKQPLYEQLVDLLRDRIENDMETGELLPSERKLAHHFGLSRTTVRLAMDRLETLGLITRVHGKDTFVAE | -1.17
HMTLPEKSKRLFSQDDFWDQIFYRIGEGQSLREVSKYYKIPYTTIHDRIHSDEGIKLKYLEALTS | -0.71
HMTGGMVTYIIEKGEGFFSLERKFGLSENELIKLNPSLKSGLKSEMQINIPKENYDRYVASS | -0.0276
HMVEPTDFTYLKAEVETAKALKQADYTVATWKSFAGELAEAEEVIAKTDASQAEVNEALSHLQAAEKELV | 0.175
HMTALTTEDLERRFYAKTYEGESAQKRLARLEISVFGELRQGRPESDRLHDLNNAVLEKERAALNAGAVG | 0.123
HMKIDELKAYLFQSVRVKNPHTQEYDTLKIIELNYYQDKIKAKLKNSDDDYITEMIFESIKHLQNFLG | -0.298
HMFIGFLHQLKEAGVPVSIREYLDFLSGLDKGITNLNTNSFYHFARASLVKDERHYDRFDRTFSEFFEGAL | -3
HMGPVALGVTDGATYFSSVTITFRRGTAVLDGEPIASGHTVYKSGAHSLTLTAGGKTRTIAFTMDT | -4.23
HMNENDENLRQQAIDASKEVRRWGEPVTLPPMNAHDRRIIHITLEGESDLQTESTGEGNFKSVVISLK | -0.111
HMLERKPVLVASRDLPALAVIGKDDLSVELLRTAPVGSYDRPEALLGKRVWVAVPAGSILSAATLEP | -0.103
HMENVLFVNVLSMTVRELAEMMKIPVNKIIQDSFSKGIMMNPNQRLEYDNFAELAKKYGITVKI | -0.879
HMISVENLSNREFEIFQLIGNGFSTKEMAKKLNLSIYTVESHKKNIKEKLKLKNSSDLSKYAIQWVIMQN | -0.503
HMGMSQQKQSSTVRIIMQDISDANEGLMKMSQIIDAALAEGISETIVRNAISNLHRGGTIYESQTGTYQW | -0.359
HMYTGSEGMAGLEGRAVTEVGPEAGTVLVKGEYWQARSDEPIATDRKIRVIRLEGLRLRVAEIHPEG | -0.0371
HMSLEDYVIIKNKTVKVYETEFDGAPVVTSSSVGQKLILVEYNDNFAKILYRAKDGLDYVGYIKRKDVYVR | -2.4
HMTKDEFLTTLRTLIQDMPPEDRRDVMNYYTEYFEDAGPEREQEVLRQLGSPEQVAREVLGG | -0.0225
HMSIQMPDLSITPVTDAKKKIESLQLQYKEVGEYNDSVIAGYVIRTEPASGSYLNEDEEVIIYVSKG | -0.246
HMFIEMDEPEKILHRILNEANGKLELDKIGYRAEWPIGKVLTVLMSLELKGVVQSHPGKVYSL | -0.154
HMEYYEDEELDRFRGRNSDQYSDAEIEEFNEILTTLRSEEVAGWIRSLQLREIALPDELKDDVILLVG | -0.804
HMSADEVSQQLTSEQTKSKSYQALLQAYAAYQQKSFDDAALELQNVQQDVLSDSQKTIYNTISQAVNS | 0.185

Sequence | soluble fraction (log2)
HMDLFSAVVHHIVGQQISTKAQATIWKRMRDEFGVVDAAAVLGAGVEKLQSFGMTFRKAEYITDFARKIE | -2.51
HMPSQEQSDKNAAMAFLPVIVKNALNGKGLKISDDWKAAVNTALAQYPLVNKFFNADSPEVTELVMGL | -0.0489
HMSQTVKYVNTTSGLNMRTGPATSYAKITTIAYGQSVNVLSTSNGWSKINYSGSTGYVSSQYLQSKKPS | -0.942
HMNNILNYTIAELMEILKIDDLETENVINSSNNLINKSINENNFPLAEFYEDVKNNLIEFIETFDS | -0.632
HMGVAAEDPDEAEKGAHSLKSSAANVGAEVVRGLAGEIESAASSGDVEAVRTILPGLEDAYSQAITDLET | 0.0162
HMSGEMGIIVAKRLPIRSEPDELATRAFVLKAGTRVKIVKHLNGWLEIVHDGKAGYVQDLEVYVRVIG | -0.524
HMREVPHGEYEVKIEKLELVESKAGDPMVTVWFKVLAGDYKGSMIFMNQVITKGFQIHIMNEFLR | -0.256
HMNDPNAPITENQLKAIHVLLDKLKVDDNLKHAYIADVLQLDNEPETLKTLTKAQGSMAIERMQLLKDN | 0.328
HMGYINLNVKVSPEWRDFWRSAYASVVAGYHQNKEHWNTIILDGSIPDKDIKRMIAESYDLVSD | -0.797
HMSEYITEGWLREKFGLGWGTEVHLPLDSRLTPAAHQLLEERKIVIKYIDAEGRVFNPDKSGEEAPVQ | 0.0587
HMNTYEIIGGDNRARGPVTGEELSQWIREGRASGHTMARVSDGEHWQPLGSFPEFVGPLQGLPW | 0.127
HMEWTDIPTHKVPNVVGKSVEEAKKKLSKFTIEYSGTGEKVVAQSPDAGEKLEEGGTVRLLL | 0.203
HMRESDQSTVELSLERTIQEALMVNPRTSSVEEFSFEWGTGRVKVSFIVYSVDGEPFTVDSIIE | -2.27
HMNEKMKEIGLRIKELRELSDISAQGMADHLKIPLETYQEYEDGKKDIPASILFEISQKMEVDMGLLLTGE | -0.0988
HMYELREGDVVSVRILSQTGQNSYIASFAGGRFSVTSERAFAPGTVFSASVSLKDGTLVLSPL | -0.568
HMQQRTVEHVDTAVEALALSIGERAGVDLPYMAHLTGKTQEDLIEDLTGVIFPVPGTEPLRYVTADDYLS | 0.028
HMFGGIEFGWSQLPDGRVEYIIQLDDQAIAALKNGRSLTSSLPPEVQNADRIRIQYGAGPVEKGLLLQ | 0.0674
HMRRATLERLANNTAEKAIRYKRSLALEPMNPQERRIIHAALQEVEGVSTHSVGTEPNRKVIVVPDGV | -0.0677
HMKHVENLSDEKTIQAIQENPYMQYLLGLSKFTEKPVFVPELFVLIRKRLDQDFFNMLTLILAEADG | 0.143
HMLPLIEVPAVTGKYLTKAKSALKDAGLDTGDIKRVEHEEHGENYVLKQDPPAGTKVPFGTTVSLTVVAP | 0.35
HMPPLVLRGVVMGADGARLAILAQGEAGAALGIGETWKEYTLRSVTDQSATLEHRSGTITLTR | -0.117
HMKQLLHLVIGGELKDVRGIEFEDLSKIDFVGAFPSYKAAYDAWKNAAQRTVDNAEMRYFILHAHR | -1.79
